Four molecules from patent US20130171170A1 (published 2013) can be followed below.

Test [1] deals with T1, cynomolgus monkey (cyno) CD22 expressed on the surface of CHO cells (cynomolgus monkey).
T1 construct: residues 1-19 (signal) should be removed
T1 chain: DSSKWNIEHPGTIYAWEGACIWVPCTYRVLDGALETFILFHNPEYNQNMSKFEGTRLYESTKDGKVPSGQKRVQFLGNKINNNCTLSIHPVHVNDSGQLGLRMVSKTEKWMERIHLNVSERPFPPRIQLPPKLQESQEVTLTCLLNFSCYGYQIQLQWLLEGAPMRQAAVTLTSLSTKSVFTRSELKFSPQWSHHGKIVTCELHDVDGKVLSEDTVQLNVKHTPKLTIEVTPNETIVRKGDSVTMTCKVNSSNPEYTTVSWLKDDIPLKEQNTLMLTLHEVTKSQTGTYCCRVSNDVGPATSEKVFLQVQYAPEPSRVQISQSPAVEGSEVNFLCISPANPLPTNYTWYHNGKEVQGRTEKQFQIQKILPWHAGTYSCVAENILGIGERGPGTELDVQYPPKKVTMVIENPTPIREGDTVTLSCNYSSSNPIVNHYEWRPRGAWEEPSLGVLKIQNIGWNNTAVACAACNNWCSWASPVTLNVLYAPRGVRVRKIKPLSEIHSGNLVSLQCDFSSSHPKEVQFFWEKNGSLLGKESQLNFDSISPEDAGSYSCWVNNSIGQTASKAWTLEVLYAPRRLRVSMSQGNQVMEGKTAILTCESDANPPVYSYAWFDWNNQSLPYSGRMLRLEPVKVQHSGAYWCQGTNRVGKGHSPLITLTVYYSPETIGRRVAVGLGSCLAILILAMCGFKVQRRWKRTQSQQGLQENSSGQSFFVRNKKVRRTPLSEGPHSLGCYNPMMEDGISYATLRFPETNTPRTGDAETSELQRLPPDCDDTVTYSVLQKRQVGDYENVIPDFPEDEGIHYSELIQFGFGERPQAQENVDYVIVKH
Put plainly: cell-based competitive binding of 125I-labelled against unlabelled antibody on CHO cells, Scatchard analysis; repeated assays. As to the method:
(§1) Briefly, CHO cells stably expressing full length human CD22 (SEQ ID NO:27) or cynomolgus monkey (cyno) CD22 (SEQ ID NO:31). […] A cell-based, competitive binding assay was performed using serially diluted, unlabeled anti-CD22 antibody. Antibodies were allowed to bind to the cells for 4 hours at 4° C. Binding affinity, KD, of the antibodies was determined in accordance with standard Scatchard analysis performed utilizing a non-linear curve fitting program (see, for example, Munson et al., Anal Biochem, 107: 220-239, 1980).

Test [2] deals with T1, cynomolgus monkey (cyno) CD22 expressed …. The test is described as follows: cell-based competitive binding of 125I-labelled against unlabelled antibody on CHO cells, 4 h at 4 C, Scatchard analysis. As to the method: as §1
In test [3] the target is T2, CD22 expressed on the surface of BJAB-lucs cells (human, UniProt P20273 20-847).
T2 construct: whole, on cells; also called CD22 expressed on BJAB-lucs cells
T2 sequence (looked up): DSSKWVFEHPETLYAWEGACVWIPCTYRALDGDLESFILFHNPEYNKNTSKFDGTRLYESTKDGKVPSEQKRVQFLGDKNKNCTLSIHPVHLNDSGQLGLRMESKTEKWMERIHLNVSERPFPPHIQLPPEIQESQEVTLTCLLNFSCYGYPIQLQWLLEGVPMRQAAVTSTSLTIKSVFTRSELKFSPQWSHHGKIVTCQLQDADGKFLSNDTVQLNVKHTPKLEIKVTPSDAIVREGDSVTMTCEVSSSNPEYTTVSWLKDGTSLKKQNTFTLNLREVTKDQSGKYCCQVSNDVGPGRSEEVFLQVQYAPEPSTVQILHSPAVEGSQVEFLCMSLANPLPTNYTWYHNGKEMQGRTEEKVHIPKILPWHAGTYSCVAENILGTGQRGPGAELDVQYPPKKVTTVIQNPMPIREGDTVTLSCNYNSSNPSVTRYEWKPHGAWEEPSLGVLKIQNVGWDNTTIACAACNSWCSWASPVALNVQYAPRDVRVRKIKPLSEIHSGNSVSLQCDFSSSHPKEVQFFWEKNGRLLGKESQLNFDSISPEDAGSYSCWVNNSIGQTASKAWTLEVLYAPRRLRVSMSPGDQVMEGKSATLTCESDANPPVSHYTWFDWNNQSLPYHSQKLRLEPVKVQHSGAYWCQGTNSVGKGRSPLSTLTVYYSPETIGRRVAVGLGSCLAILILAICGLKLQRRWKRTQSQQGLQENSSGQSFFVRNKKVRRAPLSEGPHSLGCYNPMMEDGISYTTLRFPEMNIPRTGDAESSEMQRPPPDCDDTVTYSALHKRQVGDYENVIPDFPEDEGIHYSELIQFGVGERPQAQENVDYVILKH
Put plainly: FACS on BJAB-lucs cells; biotinylated goat anti-huFc plus Streptavidin-PE. From the text: Anti-CD22 antibody bound to the cell surface was detected using biotinylated goat anti-huFc plus Streptavidin-PE.

Test [4] concerns the target T3, human CD22-beta-ECD-His tagged soluble antigen (human, UniProt P20273 22-681).
T3 construct: also called soluble CD22 extracellular domain (ECD); Soluble Human CD22
T3 sequence: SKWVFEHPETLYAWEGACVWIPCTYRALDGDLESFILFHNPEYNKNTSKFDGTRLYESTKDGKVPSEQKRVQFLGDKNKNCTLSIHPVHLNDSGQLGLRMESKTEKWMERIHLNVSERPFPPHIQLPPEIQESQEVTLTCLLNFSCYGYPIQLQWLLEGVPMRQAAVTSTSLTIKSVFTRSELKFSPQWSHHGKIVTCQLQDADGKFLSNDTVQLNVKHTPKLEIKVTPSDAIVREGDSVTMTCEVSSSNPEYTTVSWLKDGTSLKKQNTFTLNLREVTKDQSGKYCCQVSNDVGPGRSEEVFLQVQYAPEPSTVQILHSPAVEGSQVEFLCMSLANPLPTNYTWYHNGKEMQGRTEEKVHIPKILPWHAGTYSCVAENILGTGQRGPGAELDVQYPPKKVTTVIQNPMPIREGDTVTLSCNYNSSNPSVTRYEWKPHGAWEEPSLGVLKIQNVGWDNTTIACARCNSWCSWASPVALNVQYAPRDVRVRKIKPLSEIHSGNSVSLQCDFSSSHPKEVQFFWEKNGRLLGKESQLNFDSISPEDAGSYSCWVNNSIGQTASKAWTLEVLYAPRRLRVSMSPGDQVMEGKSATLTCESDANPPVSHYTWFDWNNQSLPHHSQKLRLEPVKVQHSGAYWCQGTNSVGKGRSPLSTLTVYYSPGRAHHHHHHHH
Put plainly: SPR (BIACORE 3000), antibody coupled to the chip, soluble CD22-beta-ECD-His injected, 25 C. The method, then: The binding affinity of murine and humanized 10F4 antibody for soluble CD22 extracellular domain (ECD) was determined by surface plasmon resonance measurement using a BIACORE® 3000 system (Biacore, Inc., Piscataway, N.J.). Briefly, carboxymethylated dextran biosensor chips (CMS, Biacore Inc.) were activated with N-ethyl-N′-(3-dimethylaminopropyl)-carbodiimide hydrochloride (EDC) and N-hydroxysuccinimide (NHS) according to the supplier's instructions. These activated chips were coated with anti-CD22 IgG1 antibody 10F4 (murine or humanized) by dilution to 5 μg/ml with 10 mM sodium acetate, pH 4.8, before injection at a flow rate of […] to achieve approximately 500 response units (RU) of coupled antibody. Next, 1M ethanolamine was injected to block unreacted groups. […] Association rates (kₒₙ) and dissociation rates (koff) were calculated using a simple one-to-one Langmuir binding model (BIAevaluation Software version 3.2). The equilibrium dissociation constant (Kd) was calculated as the ratio koff/kₒₙ. Anti-CD22 antibody, RFB4, was used as a control (Chemicon International, Inc., Temecula, Calif., catalog no. CBL147).
A general note: Surface plasmon resonance follows binding to a sensor surface in real time, without labels.

“And” between values parts separate entries of the source, which are not always exact repeats. Identical values can stand only once.

B1: humanized 10F4 version 1 antibody (antibody, IgG1, V domains shown)
VH: EVQLVESGGGLVQPGGSLRLSCAASGYEFSRSWMNWVRQAPGKGLEWVGRIYPGDGDTNYSGKFKGRFTISADTSKNTAYLQMNSLRAEDTAVYYCARDGSSWDWYFDVWGQGTLVTVSS
VL: DIQMTQSPSSLSASVGDRVTITCRSSQSIVHSNGNTFLEWYQQKPGKAPKLLIYKVSNRFSGVPSRFSGSGSGTDFTLTISSLQPEDFATYYCFQGSQFPYTFGQGTKVEIKR
notes: only variable domains are tied to v1; also called humanized 10F4v1; hu10F4v1
A word on the Kd: it is the constant that tells how readily two partners part at equilibrium. B1: the Kd in test [1] is 1.4 nM and 1.8 nM.

B2: humanized 10F4 version 2 antibody (antibody, human IgG1, kappa)
heavy: not shown
light: DIQMTQSPSSLSASVGDRVTITCRSSQSIVHSVGNTFLEWYQQKPGKAPKLLIYKVSNRFSGVPSRFSGSGSGTDFTLTISSLQPEDFATYYCFQGSQFPYTFGQGTKVEIKRTVAAPSVFIFPPSDEQLKSGTASVVCLLNNFYPREAKVQWKVDNALQSGNSQESVTEQDSKDSTYSLSSTLTLSKADYEKHKVYACEVTHQGLSSPVTKSFNRGEC
notes: Differs from hu10F4v1 by N28V (Kabat) in HVR-L1; Mature protein identical to hu10F4v3; also called humanized 10F4v2; hu10F4v2
The molecule B2 registered a dissociation constant Kd in test [2] of 2.1 nM.

B3: thio hu LC(V205C) 10F4v3-MCvcPAB-MMAE (antibody, human IgG1, kappa)
heavy: not shown
light: DIQMTQSPSSLSASVGDRVTITCRSSQSIVHSVGNTFLEWYQQKPGKAPKLLIYKVSNRFSGVPSRFSGSGSGTDFTLTISSLQPEDFATYYCFQGSQFPYTFGQGTKVEIKRTVAAPSVFIFPPSDEQLKSGTASVVCLLNNFYPREAKVQWKVDNALQSGNSQESVTEQDSKDSTYSLSSTLTLSKADYEKHKVYACEVTHQGLSSPCTKSFNRGEC
modifications: MC-val-cit-PAB-MMAE on the engineered Cys at Kabat position 205 (sequential position 210)
notes: Cysteine engineered IgG1 (ThioMab) drug conjugate; also called thio hu LC-10F4v3-MC-val-cit-PAB-MMAE; Thio 10F4v3-LC(V205C)-MCvcPAB-MMAE
In the case of B3, the binding result in test [3] is listed as “binds”.

B4: Chimeric 10F4 (antibody, V domains shown)
VH: QVQLQQSGPELVKPGASVKISCKASGYEFSRSWMNWVKQRPGQGREWIGRIYPGDGDTNYSGKFKGKATLTADKSSSTAYMQLSSLTSVDSAVYFCARDGSSWDWYFDVWGAGTTVTVSS
VL: DILMTQTPLSLPVSLGDQASISCRSSQSIVHSNGNTFLEWYLQKPGQSPKLLIYKVSNRFSGVPDRFSGSGSGTDFTLKISRVEAEDLGVYYCFQGSQFPYTFGGGTKVEIK
notes: also called murine chimeric 10F4
As a reminder, the koff is a measure of how fast the partners let go of each other. One may read the kon as the rate constant with which the complex forms. In test [4], B4 came in with a dissociation constant Kd of 16 nM, a koff of 0.00042 s⁻¹ and a kon of 26000 M⁻¹ s⁻¹.
